In PMC7948397, “A novel soluble complement receptor 1 fragment with enhanced therapeutic potential” (The Journal of Biological Chemistry, 2020):

How the values were obtained:
[1] = target: T1, CR1 (soluble analyte of the reverse SPR experiment; construct not named) (human, UniProt P17927 42-1971); experiment: SPR; reverse format: C3b or C4b immobilised by amine coupling (230 RU, only 20% active), CR1 as analyte; apparent affinities; data not shown; conditions: both partners purified
T1 construct: human complement receptor 1, soluble
T1 sequence (P17927 42-1971): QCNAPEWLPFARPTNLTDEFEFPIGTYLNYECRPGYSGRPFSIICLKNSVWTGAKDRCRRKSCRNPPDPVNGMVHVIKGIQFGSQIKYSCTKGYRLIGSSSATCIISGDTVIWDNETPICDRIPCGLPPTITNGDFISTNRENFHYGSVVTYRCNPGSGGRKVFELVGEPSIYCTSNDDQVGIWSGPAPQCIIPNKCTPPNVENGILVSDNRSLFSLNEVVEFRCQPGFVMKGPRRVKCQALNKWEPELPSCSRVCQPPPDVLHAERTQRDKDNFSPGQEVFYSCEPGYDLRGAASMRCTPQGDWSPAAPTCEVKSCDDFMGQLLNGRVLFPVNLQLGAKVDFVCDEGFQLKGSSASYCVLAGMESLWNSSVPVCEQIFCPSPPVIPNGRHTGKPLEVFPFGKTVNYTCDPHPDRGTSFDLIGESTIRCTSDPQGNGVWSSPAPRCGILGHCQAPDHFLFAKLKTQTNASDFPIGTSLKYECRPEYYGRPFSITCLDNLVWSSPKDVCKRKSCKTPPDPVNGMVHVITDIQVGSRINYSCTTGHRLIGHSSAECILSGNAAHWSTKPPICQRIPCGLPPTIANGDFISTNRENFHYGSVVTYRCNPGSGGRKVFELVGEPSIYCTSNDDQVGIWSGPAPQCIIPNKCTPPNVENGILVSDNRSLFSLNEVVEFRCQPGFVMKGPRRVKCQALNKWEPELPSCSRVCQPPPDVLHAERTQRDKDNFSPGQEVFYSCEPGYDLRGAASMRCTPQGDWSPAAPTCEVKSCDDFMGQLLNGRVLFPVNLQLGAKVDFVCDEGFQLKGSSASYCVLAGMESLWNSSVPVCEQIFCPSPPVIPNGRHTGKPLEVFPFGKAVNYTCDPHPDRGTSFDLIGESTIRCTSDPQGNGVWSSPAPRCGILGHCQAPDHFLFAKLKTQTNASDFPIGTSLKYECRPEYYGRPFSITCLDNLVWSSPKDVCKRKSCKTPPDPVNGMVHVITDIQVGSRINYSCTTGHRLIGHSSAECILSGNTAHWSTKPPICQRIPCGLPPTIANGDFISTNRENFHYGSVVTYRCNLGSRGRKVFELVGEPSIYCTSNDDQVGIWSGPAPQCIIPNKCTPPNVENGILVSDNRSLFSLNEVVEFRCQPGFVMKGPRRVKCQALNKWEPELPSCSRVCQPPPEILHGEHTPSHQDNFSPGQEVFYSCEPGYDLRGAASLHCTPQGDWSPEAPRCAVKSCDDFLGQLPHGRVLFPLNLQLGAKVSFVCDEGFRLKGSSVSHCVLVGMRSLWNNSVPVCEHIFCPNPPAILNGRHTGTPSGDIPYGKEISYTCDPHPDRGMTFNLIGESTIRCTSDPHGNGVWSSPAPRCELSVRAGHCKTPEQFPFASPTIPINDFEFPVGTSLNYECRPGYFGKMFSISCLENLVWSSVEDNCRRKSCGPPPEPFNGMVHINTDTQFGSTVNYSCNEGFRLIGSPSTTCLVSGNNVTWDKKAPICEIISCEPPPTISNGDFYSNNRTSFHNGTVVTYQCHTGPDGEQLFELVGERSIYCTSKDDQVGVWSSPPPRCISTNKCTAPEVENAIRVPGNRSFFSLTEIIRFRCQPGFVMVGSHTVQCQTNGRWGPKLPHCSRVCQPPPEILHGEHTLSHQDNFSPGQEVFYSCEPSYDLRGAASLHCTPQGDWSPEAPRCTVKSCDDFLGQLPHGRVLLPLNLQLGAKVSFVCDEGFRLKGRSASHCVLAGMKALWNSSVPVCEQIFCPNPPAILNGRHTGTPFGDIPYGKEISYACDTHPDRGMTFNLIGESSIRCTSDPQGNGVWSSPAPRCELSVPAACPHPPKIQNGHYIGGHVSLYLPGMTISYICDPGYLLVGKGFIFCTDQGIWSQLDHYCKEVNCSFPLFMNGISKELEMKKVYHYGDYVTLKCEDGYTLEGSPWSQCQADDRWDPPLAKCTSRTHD

plasma-derived human C3b = target: T2, plasma-derived human C3b (human, UniProt P01024 23-667; P01024 749-1663); experiment: SPR; His-tagged CSL040 or HuCR1(1971) captured on a Ni-NTA chip to 75-100 RU, C3b or C4b injected as analyte; Biacore T200, 37 °C; 10 mM Hepes, 150 mM NaCl, 0.1% bovine serum albumin, pH 7.3; 1:1 model with a term for mass transport; conditions: both partners purified
T2 construct: human complement C3, beta chain; human complement C3b, alpha' chain (C3 alpha chain without C3a); source: bought: Complement Technology, plasma-derived
T2 sequence (P01024 23-667, chain 1 of 2): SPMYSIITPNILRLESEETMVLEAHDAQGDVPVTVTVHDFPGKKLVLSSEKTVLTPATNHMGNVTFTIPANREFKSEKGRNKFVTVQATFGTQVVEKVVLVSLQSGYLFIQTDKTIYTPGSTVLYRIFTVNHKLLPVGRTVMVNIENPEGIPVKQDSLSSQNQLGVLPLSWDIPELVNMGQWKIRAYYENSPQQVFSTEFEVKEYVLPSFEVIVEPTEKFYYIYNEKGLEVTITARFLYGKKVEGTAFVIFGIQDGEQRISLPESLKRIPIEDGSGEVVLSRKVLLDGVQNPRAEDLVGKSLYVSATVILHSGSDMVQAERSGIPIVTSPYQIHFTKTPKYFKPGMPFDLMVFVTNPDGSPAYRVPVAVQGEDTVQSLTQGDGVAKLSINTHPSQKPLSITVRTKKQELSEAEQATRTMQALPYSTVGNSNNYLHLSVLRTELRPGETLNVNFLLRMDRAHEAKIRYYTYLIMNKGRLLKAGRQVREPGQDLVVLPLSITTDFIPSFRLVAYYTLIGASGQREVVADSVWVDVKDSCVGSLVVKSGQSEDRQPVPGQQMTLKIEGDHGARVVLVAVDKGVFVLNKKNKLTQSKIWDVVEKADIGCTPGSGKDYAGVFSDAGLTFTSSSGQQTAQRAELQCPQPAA
T2 sequence (P01024 749-1663, chain 2 of 2): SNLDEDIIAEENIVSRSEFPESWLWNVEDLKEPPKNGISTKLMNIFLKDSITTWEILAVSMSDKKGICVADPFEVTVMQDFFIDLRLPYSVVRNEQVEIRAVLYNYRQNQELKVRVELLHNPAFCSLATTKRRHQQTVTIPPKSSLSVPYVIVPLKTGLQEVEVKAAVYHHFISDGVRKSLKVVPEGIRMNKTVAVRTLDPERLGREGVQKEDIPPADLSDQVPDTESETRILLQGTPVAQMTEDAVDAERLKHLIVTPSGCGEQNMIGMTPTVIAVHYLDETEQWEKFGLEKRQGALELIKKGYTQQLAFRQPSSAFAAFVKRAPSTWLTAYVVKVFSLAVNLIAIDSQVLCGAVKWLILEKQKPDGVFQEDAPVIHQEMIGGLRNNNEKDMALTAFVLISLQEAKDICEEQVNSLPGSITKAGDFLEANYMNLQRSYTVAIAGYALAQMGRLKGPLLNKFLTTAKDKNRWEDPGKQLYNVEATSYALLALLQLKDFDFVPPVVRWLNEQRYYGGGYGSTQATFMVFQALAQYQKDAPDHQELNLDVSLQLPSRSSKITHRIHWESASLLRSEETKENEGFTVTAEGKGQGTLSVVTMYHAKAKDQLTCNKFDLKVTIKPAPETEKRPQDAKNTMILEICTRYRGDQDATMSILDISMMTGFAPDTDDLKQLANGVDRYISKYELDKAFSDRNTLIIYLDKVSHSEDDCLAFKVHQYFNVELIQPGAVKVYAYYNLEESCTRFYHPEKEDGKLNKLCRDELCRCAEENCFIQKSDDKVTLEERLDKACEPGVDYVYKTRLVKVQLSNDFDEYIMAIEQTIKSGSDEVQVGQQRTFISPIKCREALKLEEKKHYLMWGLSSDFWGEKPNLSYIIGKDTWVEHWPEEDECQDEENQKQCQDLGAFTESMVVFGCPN

Row | Kd [1] [nM] | Kd (plasma-derived human C3b) [nM] | koff (plasma-derived human C3b) [s⁻¹] | kon (plasma-derived human C3b) [M⁻¹ s⁻¹] | Binder
1 | ~4900 |  |  |  | plasma-derived human C4b (ligand, human complement C4, beta chain; human complement C4b, alpha' chain (C4 alpha chain without C4a); human complement C4, gamma chain; Plasma-derived C4b is likely a mixture of C4A and C4B forms; source: bought: Complement Technology, plasma-derived; copies: + +) chain 1: KPRLLLFSPSVVHLGVPLSVGVQLQDVPRGQVVKGSVFLRNPSRNNVPCSPKVDFTLSSERDFALLSLQVPLKDAKSCGLHQLLRGPEVQLVAHSPWLKDSLSRTTNIQGINLLFSSRRGHLFLQTDQPIYNPGQRVRYRVFALDQKMRPSTDTITVMVENSHGLRVRKKEVYMPSSIFQDDFVIPDISEPGTWKISARFSDGLESNSSTQFEVKKYVLPNFEVKITPGKPYILTVPGHLDEMQLDIQARYIYGKPVQGVAYVRFGLLDEDGKKTFFRGLESQTKLVNGQSHISLSKAEFQDALEKLNMGITDLQGLRLYVAAAIIESPGGEMEEAELTSWYFVSSPFSLDLSKTKRHLVPGAPFLLQALVREMSGSPASGIPVKVSATVSSPGSVPEVQDIQQNTDGSGQVSIPIIIPQTISELQLSVSAGSPHPAIARLTVAAPPSGGPGFLSIERPDSRPPRVGDTLNLNLRAVGSGATFSHYYYMILSRGQIVFMNREPKRTLTSVSVFVDHHLAPSFYFVAFYYHGDHPVANSLRVDVQAGACEGKLELSVDGAKQYRNGESVKLHLETDSLALVALGALDTALYAAGSKSHKPLNMGKVFEAMNSYDLGCGPGGGDSALQVFQAAGLAFSDGDQWTLSRKRLSCPKEKTT chain 2: ALEILQEEDLIDEDDIPVRSFFPENWLWRVETVDRFQILTLWLPDSLTTWEIHGLSLSKTKGLCVATPVQLRVFREFHLHLRLPMSVRRFEQLELRPVLYNYLDKNLTVSVHVSPVEGLCLAGGGGLAQQVLVPAGSARPVAFSVVPTAAAAVSLKVVARGSFEFPVGDAVSKVLQIEKEGAIHREELVYELNPLDHRGRTLEIPGNSDPNMIPDGDFNSYVRVTASDPLDTLGSEGALSPGGVASLLRLPRGCGEQTMIYLAPTLAASRYLDKTEQWSTLPPETKDHAVDLIQKGYMRIQQFRKADGSYAAWLSRDSSTWLTAFVLKVLSLAQEQVGGSPEKLQETSNWLLSQQQADGSFQDPCPVLDRSMQGGLVGNDETVALTAFVTIALHHGLAVFQDEGAEPLKQRVEASISKANSFLGEKASAGLLGAHAAAITAYALTLTKAPVDLLGVAHNNLMAMAQETGDNLYWGSVTGSQSNAVSPTPAPRNPSDPMPQAPALWIETTAYALLHLLLHEGKAEMADQASAWLTRQGSFQGGFRSTQDTVIALDALSAYWIASHTTEERGLNVTLSSTGRNGFKSHALQLNNRQIRGLEEELQFSLGSKINVKVGGNSKGTLKVLRTYNVLDMKNTTCQDLQIEVTVKGHVEYTMEANEDYEDYEYDELPAKDDPDAPLQPVTPLQLFEG chain 3: EAPKVVEEQESRVHYTVCIWRNGKVGLSGMAIADVTLLSGFHALRADLEKLTSLSDRYVSHFETEGPHVLLYFDSVPTSRECVGFEAVQEVPVGLVQPASATLYDYYNPERRCSVFYGAPSKSRLLATLCSAEVCQCAEGKCPRQRRALERGLQDEDGYRMKFACYYPRVEYGFQVKVLREDSRAAFRLFETKITQVLHFTKDVKAAANQMRNFLVRASCRLRLEPGKEYLIMGLDGATYDLEGHPQYLLDSNSWIEEMPSERLCRSTRQRAACAQLNDFLQEYGTQGCQV
2 |  | 265 | 0.00654 | 24800 | HuCR1(1392)/CSL040, soluble human complement receptor 1 truncated at amino acid 1392 (LHR-A, LHR-B and LHR-C) (receptor, signal peptide in the construct; human complement receptor 1 (HuCR1, CD35), endogenous signal peptide, ends at amino acid 1392 (LHR-A, LHR-B, LHR-C; lacks LHR-D); amino acid numbering based on Met + 1; cDNA GenBank NP_000564, codon optimised; N-glycosylated, highly sialylated; A version without the His-tag was also made, but the SPR used the His-tagged protein; also called LHR-ABC; not shown: …) not shown
